The text below walks through data of patent US20160207996A1 (ARGEN X N V, published 2016).

Assay [1] deals with Nt-GCGR-hFc (human) (UniProt P47871). Kind of assay: scFv binding ELISA, periplasmic extract on coated Nt-GCGR.
Assay [2] deals with T1, Nt-GCGR-hFc (human, UniProt P47871 26-136).
T1 construct: domain: N-terminal domain; also called Nt-GCGR-Fc; recombinant N-terminal domain of GCGR; not shown: hFc
Briefly: ELISA with a titration of biotin-Nt-GCGR (x axis) against the mAbs, OD620.

For assay [3], the target named is human Nav1.7 (full length) (human) (UniProt Q15858). Briefly: cell-based or functional assay.
Assay [4] deals with T2, hNav1.7-loopB1-C1-D1-llama Fc (human).
T2 construct: whole entry: loops B1, C1, D1 joined by linkers, llama Fc; also called hNav1.7-loopB1-C1-D1-llfc
T2 chain: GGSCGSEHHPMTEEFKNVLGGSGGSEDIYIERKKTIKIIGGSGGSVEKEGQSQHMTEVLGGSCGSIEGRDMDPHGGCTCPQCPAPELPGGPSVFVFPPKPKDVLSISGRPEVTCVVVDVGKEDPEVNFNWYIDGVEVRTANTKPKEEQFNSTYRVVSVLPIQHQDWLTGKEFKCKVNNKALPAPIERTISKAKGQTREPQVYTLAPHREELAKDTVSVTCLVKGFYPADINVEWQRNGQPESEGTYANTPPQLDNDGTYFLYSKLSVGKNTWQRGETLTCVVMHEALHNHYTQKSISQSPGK
Kind of assay: ELISA, coated loop-B1-C1-D1-llama Fc 20 ng/well, mAb titrated. The procedure: mAbs originating from the loopA3-llama Fc immunization were assayed for their affinity for hNav1.7-loopA3. Therefore, a Maxisorp plate was coated with 10 ng/well of loopA3-llamaFc chimera and incubated overnight at 4° C. The next day, the plate was blocked with PBS+1% casein for 2 hours at RT. Subsequently a concentration gradient of antibodies was applied (range 0.25 pM-66 nM) for another hour. Antibody binding to loopA3 was detected using a HRP-conjugated anti-human Fc antibody (Abcam, Ab7499) (incubation 1 hour at RT, dilution 1/5000 in PBS+0.1% casein), followed by TMB addition and OD620 nm measurement. EC50 values were determined using GraphPad Prism software. For comparison purposes a known hNav1.7-loopA3 binding monoclonal antibody, UCB_932 (US2011/0135662), was tested.
In a next experiment, the binding affinity of the loop-specific mAbs was determined and compared to reference mAbs as described in US2011/0135662 (for loop A3: UCB_932, for loopB1-C1-D1: UCB_983, for loopC3: UCB_1066; US2011/0135662). Affinities were determined using an ELISA with a loop-coating of 10 ng/well (loopA3-llama Fc), 20 ng/well (loop-B1-C1-D1-llama Fc) or 50 ng/well (loopC3-llama Fc). The remainder of the experimental setup was identical to abovementioned binding ELISAs. Most of the mAbs show pM affinity for the respective hNav1.7 extracellular loop they are binding. […] The EC₅₀ for the reference mAbs could not be determined (nd) from the ELISA data available because the binding was too weak.

For assay [5], the target named is T3, hNav1.7-loopA3-llama Fc fusion (human).
T3 construct: also called hNav1.7-loopA3-llFc; loopA3-llamaFc chimera
T3 chain: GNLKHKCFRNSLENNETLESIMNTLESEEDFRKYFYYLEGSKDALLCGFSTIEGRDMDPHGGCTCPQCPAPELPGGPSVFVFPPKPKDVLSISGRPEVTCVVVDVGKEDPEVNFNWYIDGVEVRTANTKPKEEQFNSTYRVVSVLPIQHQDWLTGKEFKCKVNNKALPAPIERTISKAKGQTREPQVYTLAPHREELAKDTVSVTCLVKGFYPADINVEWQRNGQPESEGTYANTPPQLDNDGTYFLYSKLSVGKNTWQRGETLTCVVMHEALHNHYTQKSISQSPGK
Briefly: binding ELISA on coated loop-llama Fc chimera (20 ng/well), OD620. The procedure:
(§1) For all DNA-immunization derived mAbs the binding affinity for the various hNav1.7-loop-llama Fc chimeras was tested in a binding ELISA. Therefore, a Maxisorp plate (Nunc) was coated with 20 ng/well of hNav1.7-loopA3-llama Fc, hNav1.7-loopB1-C1-D1-llama Fc or hNav1.7-loopC3-llama Fc. Remainder of the ELISA setup is as described above. […] Only at very high concentration minor cross-reactivity is observed for some clones.

The target in assay [6] is T4, RatB1-C1-D1-llFc (rat).
T4 construct: also called rat Nav1.7 loopB1-C1-D1 llamaFc chimera
T4 chain: T2 chain with R32K, S52T, Q53E, H54Y, T56D, E57Y
Briefly: binding ELISA; the panel prints no target, by paragraph 562 the coated rat loop B1-C1-D1-llama Fc.

Assay [7] addresses T5, hNav1.5-B1-C1-D1-llFc (human).
T5 construct: also called Nav1.5 extracellular loop B1-C1-D1 llamaFc chimera
T5 chain: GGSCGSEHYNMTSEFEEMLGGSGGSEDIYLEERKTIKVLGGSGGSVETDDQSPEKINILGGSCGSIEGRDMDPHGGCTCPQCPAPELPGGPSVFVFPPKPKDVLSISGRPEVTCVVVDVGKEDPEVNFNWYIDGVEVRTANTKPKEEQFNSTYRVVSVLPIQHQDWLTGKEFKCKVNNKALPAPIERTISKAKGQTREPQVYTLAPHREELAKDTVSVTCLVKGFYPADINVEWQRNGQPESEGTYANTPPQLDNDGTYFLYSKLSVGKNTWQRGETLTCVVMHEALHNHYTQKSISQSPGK
Briefly: binding ELISA; the panel prints no target, by paragraph 288 and paragraph 555 the coated hNav1.5 loop B1-C1-D1-llama Fc. An excerpt:
The therapeutic potency of an anti-hNav1.7 antibody will highly depend on the lack of binding to other Nay family members. Of particular interest is hNav1.5, which is expressed on cardiac muscle cells. As such, cross-reactive binding of hNav1.7 antibodies to hNav1.5 could lead to heart failure. To assay the specificity of the mAbs derived from DNA immunization for hNav1.7, the corresponding loopA3 and loopB1-C1-D1 sequences of hNav1.5 were cloned as llamaFc chimera and cross-reactivity was determined using a binding ELISA (FIG. 8). All clones, except clone 9A6 and 9H4, show no cross-reactivity to hNav1.5. In addition, cross reactivity for hNav1.2 was tested for the loopA3-binding clones 8A7 and 8B6 using hNav1.2 and hNav1.7 derived monomeric, GST-tagged loopA3 peptides (Abnova, H00006326-Q01 (hNav1.2) and H00006335-Q01 (hNav1.7)). Again, no cross-reactive binding was observed.

The target in assay [8] is T2, hNav1.7-loopB1-C1-D1-llama Fc. Kind of assay: binding ELISA on coated loop-llama Fc chimera (20 ng/well), OD620. The protocol: as §1

Where a chain is given by its changes, count along the chain named.

T1 sequence (P47871 26-136): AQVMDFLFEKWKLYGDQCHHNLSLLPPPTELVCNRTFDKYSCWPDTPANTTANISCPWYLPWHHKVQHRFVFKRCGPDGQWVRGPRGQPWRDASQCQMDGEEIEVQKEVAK
Nt-GCGR-hFc (human), sequence (P47871 26-136): as above

B1: scFv A3 (scFv, part only; not given: GS linker, not shown: small tags and cut ends)
scFv, part: QVQVQESGGGLVQPGGSLRLSCATSGFTFSNYYMSWVRQAPGKGPEWVSSIYSDLSTTYYADSVKGRFTISRDRAKNTLYLQMNSLKSEDTAVYYCARLSTVAGVDYWGKGTLVTVSSSYELTQSPSVSVALRQTAKITCGGNNIGSKSAQWYQQKPGQAPVLVIYADYRRPSGIPERFSGSNSGNTATLTISGAQAEDEADYYCQVWDSSANAAVFGGGTHLTVLG
B1 yielded a ScFv binding ELISA signal in assay [1] of 0.883.

B2: scFv B1 (scFv, part only; not given: GS linker, not shown: small tags and cut ends)
scFv, part: B1 scFv, part
B2: in assay [1], the ScFv binding ELISA signal was found to be 0.749.

B3: mAb 6A5 (antibody, IgG1, V domains shown)
VH: EVQLQESGGGSVQPGGSLRLSCAASGFTFSANAMTWVRQAPGKGLEWVSAISGTGASTSYADSVKGRFTVSRDNAKNTLYLQVNNLKPEDTAVYRCAKLGGDTWYMEYWAKGTLVTVSS
VL: SYELTQSPSVSVALRQTAKITCGGDNIGSKYVNWYQQKPSQTPVLVIYKDSNRPSGIPERFSGSNSGNTAALTISGAQAEDEADYYCQVWDGSAAVFGGGTHLSVLG
Take B3: in assay [2], the binding result is “no binding (tested: about 20 ng/ml biotin-Nt-GCGR)”.

B4: 9C3 (antibody, V domains shown)
VH: EVQLVQPGAELRNPGTSVKVSCKTSGYYFTSSDIQWVRQAPAQGLEWMGRIDPEDGATKYAPKFQGRVTFTADTFTRTAYVELSNLRSDDTAVYYCMTAGGEYWGKGTLVTVSS
VL: QPVLNQPSALSVSLGQTARITCQGGDFRNYYNNWYQQKPGQAPVLVIYEDSERPSGIPERFSGSSSGDTVILTVSRVQADDEADYYCQSSDSTDNAVFGGGTHLTVL
notes: chimeric llama-human, human IgG1 constant domains
Regarding B4, in assay [3], the % inhibition of inward current following P02 voltage protocol, 10 µg/ml was found to be 18.3%; the % inhibition of inward current following P02 voltage protocol, 25 µg/ml is 21.6%; the % inhibition of inward current following P02 voltage protocol, 100 µg/ml stood at 36.9%. In assay [4], this molecule gave an EC50 of 170 pM. Besides, the binding result in assay [5] was “binds”. Also, the binding result in assay [6] was “binds”. Moreover, in assay [7], the binding result is on record as “no binding (tested: about 130 nM)”.

B5: mAb 6A1 (antibody, IgG1, V domains shown)
VH: EVQLVESGGGLVQPGGSLRLSCAASGFTFSRNAMTWVRQAPGKGLEWVSAISSTGNSITEADSVKGRFTISRDNAKNMLYLQMNSLKPEDTAVYYCAKLGGDTWYMEYWGQGTQVTVSS
VL: SYELTQSPSMSVALRQTAKITCGGNNIGSKSAQWYQQKPGQAPVLVIYADNRRPSGIPERFSGSNSGNTATLTISGAQAEDEADYYCQVWDSSANAVFGRGTHLTVLG
As for B5, the binding result in assay [2] is reported as “no binding (tested: about 20 ng/ml biotin-Nt-GCGR)”.

B6: 9A1 (antibody, V domains shown)
VH: EVQLVQPGAELRNPGASVKVSCKASGDTFTDYYIHWVRQAPGQGLEWMGRIDPEDGGTKYTQKFQGRVTFTADTSTSTVYLELDSLRSEDTAVYYCVGDMDYWGKGTLVTVSS
VL: QTVVTQEPSLSVSPGGTVTLTCGLSSGSVTFGNYPSWYQQTPGQAPRTLIYTTNSRHSGVPSRFSGSISGNKATLTISGAQPEDEADFYCALSRVSGTYGTVFGGGTHLTVL
notes: as for B4
On to B6, for which, in assay [3], the % inhibition of inward current following P02 voltage protocol, 10 µg/ml is 6.4%; the % inhibition of inward current following P02 voltage protocol, 25 µg/ml was 24.3%; the % inhibition of inward current following P02 voltage protocol, 100 µg/ml was 37.5%. In addition, the EC50 in assay [4] was found to be 330 pM. The binding result in assay [5] was “binds”. Also, the binding result in assay [6] was “binds”. Also, the binding result in assay [7] is on record as “no binding (tested: about 130 nM)”.

B7: 9G6 (antibody, human IgG1, V domains shown)
VH: EVQLVQPGAELTKPGASVKVSCNTSGYTFTGYYIDWVRQVPGEGLEWMGRIDPEDGDTKYAQKFQGRVTITADTSTTTAYMELSSLRSEDTAVYYCSLGVDYWGQGTQVTVSS
VL: ATMLTQSPGSLSVVPGESASISCKTSQSLVHSDGKTYLYWLLQKPGQSPQRLIYQVSNRDSGVPDRFTGSGSGTDFTLKISGVKAEDAGVYYCAQTTYDPVTFGQGTKVELK
In assay [3], B7 showed a % inhibition of inward current following P02 voltage protocol, 10 µg/ml of 11.8%; a % inhibition of inward current following P02 voltage protocol, 25 µg/ml of 22.8%; a % inhibition of inward current following P02 voltage protocol, 100 µg/ml of 37.5%. In assay [8], the binding result is listed as “binds”. In assay [7], the binding result is reported as “no binding (tested: about 130 nM)”.

B8: 9F10 (antibody, human IgG1, V domains shown)
VH: EVQLVQPGAEVRRPGAAVKVSCKASGFALISSYIDWVRQAPGQGLEWMGRIDPEDGGTSYAQKFQGRVTVTVDTATSTVYVELSSLRSDDTGVYFCMVGDSGYWGQGTQVTVSS
VL: ATMLTQSPGSLSVGPGESASISCKAGQSLTHPNGKTYLSWLLQKPGQSPRRLIYETSNRDPGVPDRFTGSGSGTDFTLRIVGVTVEDAGVYYCAQTTYFPIAFGQGTKVELK
For the molecule B8, it took 81 pM to reach a half-maximal effect in assay [4] (EC50). Moreover, the binding result in assay [5] is given as “no binding (tested: about 66 nM)”; in assay [6], “binds”; in assay [7] it was “no binding (tested: about 130 nM)”.
